Data published in patent US20260209330A1, “S100A7 AS A DIAGNOSTIC MARKER AND THERAPEUTIC TARGET FOR DISORDERS” (Ohio State Innovation Foundation, priority 2022, published 2026).

B1: S100A7 nAb: novel monoclonal S100A7 neutralizing antibody, hybridoma clone 28F8-2; heavy chain SEQ ID NO: 4, light chain SEQ ID NO: 8 (antibody)
heavy: MRVLILLWLFTAFPGILSDVQLQESGPGLVKPSQSLSLTCTVTGYSITSDYAWNWIRQFPGNKLEWMGYISYSGYTSYNPSLKSRISITRDTSKNQFFLQLNSVTTEDTTTYYCTRGGKGPMDYWGQGTSVTVSSAKTTPPSVYPLAPGSAAQTNSMVTLGCLVKGYFPEPVTVTWNSGSLSSGVHTFPAVLQSDLYTLSSSVTVPSSTWPSETVTCNVAHPASSTKVDKKIVPRDCGCKPCICTVPEVSSVFIFPPKPKDVLTITLTPKVTCVVVDISKDDPEVQFSWFVDDVEVHTAQTQPREEQFNSTFRSVSELPIMHQDWLNGKEFKCRVNSAAFPAPIEKTISKTKGRPKAPQVYTIPPPKEQMAKDKVSLTCMITDFFPEDITVEWQWNGQPAENYKNTQPIMDTDGSYFVYSKLNVQKSNWEAGNTFTCSVLHEGLHNHHTEKSLSHSPGK
light: MKSQTQVFVFLLLCVSGAHGSIVMTQTPKFLLVSAGDRVTITCKASQSVSNDVAWYHQKPGQSPKLLIYYASNRYTGVPDRFTGSGYGTDFTFTISTVQAEDLAVYFCQQDYSSPYTFGGGTKLEIKRADAAPTVSIFPPSSEQLTSGGASVVCFLNNFYPKDINVKWKIDGSERQNGVLNSWTDQDSKDSTYSMSSTLTLTKDEYERHNSYTCEATHKTSTSPIVKSFNRNEC
modifications: Description of sequence: Heavy Chain; Description of sequence: Light Chain

Tests used:
[1] = breast cancer patients; reported; cited from earlier work
[2] = test system: MDA-MB-231 cells; experiment: 3D-Spheroid invasion assay (3D-Cultrex spheroid invasion kit); type: cell-based; conditions: nAb clone 28F8-2 300 ng/μl; recombinant human S100A7 100 ng/ml; vs control IgG or PBS; invaded area on 10th day
Experimental: (§1) MDA-MB-231 cells were treated with hS100A7 neutralizing antibody (clone 28F8-2; 300 ng/μl) or control IgG or PBS in the presence or absence of recombinant human S100A7 (100 ng/ml) and spheroid invasion assay was performed by using 3D-Cultrex spheroid invasion kit. […] FIG. 9B show the bar diagram representing the invaded area of spheroids. The area between red and blue circles represents the invaded area. […] GAPDH was used as a loading control. S100A7 overexpressing MDA-MB-231 cells (1×10^6) were injected into the female NCG mice. After the onset of palpable tumors, mice were either treated with vehicle control (VC), S100A7 nAb ([…], i.p. route; clone 28F8-2; two times a week) alone or in combination with ASB-14780 (50 mg/kg·bt, oral route; three times a week). […] FIGS. 9F, 9G, and 9H show the analysis of tumor volume, tumor weight, and liver metastasis of control IgG, S100A7 nAb, ASB-14780, and combination-treated. *** is p<0.001; **** is p<0.0001. One way ANOVA and t test were used for calculating statistical significance.
(§2) Trans-well migration assay and 3D-Spheroid invasion assay. MDA-MB-231 cells were treated with hS100A7 neutralizing antibody (clone 28F8-2; 300 ng/μl) or control IgG or PBS in the presence or absence of recombinant human S100A7 (100 ng/ml). […] On the 10th day, the invaded area was calculated by using the image-J plugin.

[3] = test system: MDA-MB-231 cells; experiment: Trans-well migration assay; type: cell-based; conditions: nAb clone 28F8-2 300 ng/μl; recombinant human S100A7 100 ng/ml; overnight, transwell chambers
Experimental: as §1, §2

[4] = test system: PD-L1; experiment: S100A7-induced PD-L1 expression by Western blot; type: cell-based; conditions: MDA-MB-231 cells; nAb clone 28F8-2 300 ng/μl; recombinant human S100A7 100 ng/ml; GAPDH loading control
Experimental: as §1
Western blotting, adipokine array and Immunohistochemistry (IHC). Cell or tissue lysates were analyzed by Western blotting. Briefly, samples were run on NuPAGE 4-12% gradient precast gels (Invitrogen) and probed with primary antibodies (Table 1), followed by secondary antibodies incubation, and were developed. […]

[5] = HFD-induced obesity in wild type female FVB mice; type: in vivo, mouse; conditions: FVB mice on HFD; nAb i.p. two times a week, alone or with reboxetine 20 mg/kg·bt i.p. twice a week; vs control IgG treated group
Experimental: (§3) FIGS. 10C, 10D, 10E, 10F, and 10G show the analysis of body weight, vWAT mass (gm), tumor volume, tumor weight (gm), and Lung metastasis of VC, S100A7 nAb, Reb and combo-treated animals. *P<0.05, ** P<0.01. One way ANOVA was used for calculating statistical significance. Mouse models, obesity tumor growth analyses and flow cytometry. The NCG and wild-type 6 weeks old female FVB mice (6 weeks old) were obtained from the Charles River. S100A7 overexpressing MDA-MB-231 cells (1×10^6) were injected into the 4th mammary fat pad of NCG mice. While Mvt1 cells (1×10^5) were injected into the mammary fat pad of wild type FVB mice fed with HFD. […] Mvt-1 cells (1×10^5) were also injected into the mammary glands of S100A7 floxed (control) and KO mice. Body weights and tumors were measured weekly, and volume was calculated. In the endpoints, animals were sacrificed, and tumors and other organs were excised. All mice were kept in The OSU's animal facility in compliance with the guidelines and protocols approved by the OSU-IACUC. For flow cytometry, freshly prepared single-cell suspensions of spleen samples harvested from non-tumor bearing S100A7 floxed and KO mice were incubated with an Fc receptor blocker followed by staining with different fluorochrome-conjugated antibodies (Table 1). After staining, cells were evaluated by FACS Fortessa using CellQuest software (BD Biosciences)

[6] = test system: Mvt1 cells; experiment: Mvt1-generated syngeneic breast tumor model in HFD-induced obese mice; type: in vivo, mouse; conditions: HFD-induced obese FVB mice with Mvt1 tumors; nAb i.p. two times a week, alone or with reboxetine 20 mg/kg·bt i.p. twice a week
Experimental: as §3

Molecule	depressive symptoms [1]	tolerability [1]	S100A7-mediated invasiveness of spheroid cells (invaded area) [2]	S100A7-mediated migration of TNBC cells [3]	S100A7-induced PD-L1 expression [4]	HFD-induced body weight gain [5]	visceral fat accumulation (vWAT mass) [5]	lung metastasis [6]	tumor growth (tumor volume, tumor weight) [6]
CCOc1ccccc1OC(c1ccccc1)C1CNCCO1 (stereo not drawn) [reboxetine]	reduces	well tolerated							
B1			reduced	inhibits	decreases	significantly inhibited	significantly inhibited	significantly reduced	significantly reduced
